Where a chain is given by its changes, count along the chain named. In names and notes the source's numbering stands.
T1: human IL-23 (human, UniProt P29460 23-328; Q9NPF7 20-189)
T1 construct: Recombinant (Ebioscience); HIS-tagged in flow cytometry, biotinylated in some assays; also called hIL-23; rhIL-23
T1 sequence 1: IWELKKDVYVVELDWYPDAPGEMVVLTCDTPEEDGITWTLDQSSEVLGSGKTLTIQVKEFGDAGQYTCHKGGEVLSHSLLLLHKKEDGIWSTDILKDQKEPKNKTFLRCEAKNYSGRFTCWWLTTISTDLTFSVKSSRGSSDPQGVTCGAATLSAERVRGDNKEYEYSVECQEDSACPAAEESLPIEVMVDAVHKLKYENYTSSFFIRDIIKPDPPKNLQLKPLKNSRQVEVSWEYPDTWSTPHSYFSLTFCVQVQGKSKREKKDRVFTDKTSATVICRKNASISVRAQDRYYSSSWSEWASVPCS
T1 sequence 2: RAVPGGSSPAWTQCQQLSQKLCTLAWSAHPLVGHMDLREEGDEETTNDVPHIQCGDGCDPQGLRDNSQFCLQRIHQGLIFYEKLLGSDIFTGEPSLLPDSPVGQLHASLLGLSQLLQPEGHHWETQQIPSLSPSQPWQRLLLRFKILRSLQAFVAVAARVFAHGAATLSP

T2: human IL-12 (human, UniProt P29460 23-328; P29459 23-219)
T2 construct: Recombinant (Peprotech); FLAG-tagged IL-12 in the flow cytometry assays, biotinylated in the IL-12Rβ2 assay; also called hIL-12
T2 sequence 1: T1 sequence 1
T2 sequence 2: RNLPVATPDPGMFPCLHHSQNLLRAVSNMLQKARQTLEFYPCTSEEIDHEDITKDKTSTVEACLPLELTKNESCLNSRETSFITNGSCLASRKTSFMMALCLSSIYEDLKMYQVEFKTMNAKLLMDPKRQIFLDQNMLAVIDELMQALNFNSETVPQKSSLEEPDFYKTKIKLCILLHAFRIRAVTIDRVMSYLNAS

B1: scFv combo. # 1 (scFv)
scFv: QVQLVQSGAEVKKPGASVKVSCKASGYTFTDYYLHWVRQAPGRGLEWMGWIDPENGDTEHAPKFQGRVTMTTDTSTSTAYMELRSLRSDDTAVYYCNANKELRYFDVWGQGTMVTVSSGGGGSGGGGSGGGGSEIVMTQSPATLSVSPGERATLSCRASQSISINLHWYQQKPGQAPRLLIYFASQSTSGIPARFSGSGSGTEFTLTISSLQSEDFAVYYCQQSNSFPLTFGGGTKVEIKR
notes: scFv-80 with VH Q43R, Y59H; VL I55T; not shown: proprietary C-terminal FLAG tag
B2: scFv combo. # 11 (scFv)
scFv: B1 scFv with R43Q, H60S, S159P, T188I
notes: scFv-80 with VH Y59S; VL S26P; not shown: proprietary C-terminal FLAG tag
B3: scFv combo. # 9 (scFv)
scFv: B1 scFv with H60S
notes: scFv-80 with VH Q43R, Y59S; VL I55T; not shown: proprietary C-terminal FLAG tag
B4: scFv combo. # 10 (scFv)
scFv: B1 scFv with T28A, R43Q, T188I
notes: scFv-80 with VH T28A, Y59H; not shown: proprietary C-terminal FLAG tag
B5: scFv combo. # 8 (scFv)
scFv: B1 scFv with F29L, R43Q, H60S, T188I
notes: scFv-80 with VH F29L, Y59S; not shown: proprietary C-terminal FLAG tag
B6: scFv combo. # 12 (scFv)
scFv: B1 scFv with T28A, R43Q, H60S, T69S, T188I
notes: scFv-80 with VH T28A, Y59S, T68S; not shown: proprietary C-terminal FLAG tag
B7: scFv combo. # 7 (scFv)
scFv: B1 scFv with F29L, R43Q, T188I
notes: scFv-80 with VH F29L, Y59H; not shown: proprietary C-terminal FLAG tag
B8: scFv combo. # 6 (scFv)
scFv: B1 scFv with T28A, R43Q, T69S, T188I
notes: scFv-80 with VH T28A, Y59H, T68S; not shown: proprietary C-terminal FLAG tag
B9: scFv combo. # 2 (scFv)
scFv: B1 scFv with T28A, R43Q, H60S, T188I
notes: scFv-80 with VH T28A, Y59S; not shown: proprietary C-terminal FLAG tag
B10: Antibody 7 (antibody, human IgG1, kappa, V domains shown)
VH: EVQLQQSGADLVRSGASIKLSCTASGFNIKDYYMHWVKQRPEQGLEWIGWIDPENGDTEYAPKFQGKATMTADTSSNTAYLQLSSLTSEDTAVYYCNANKELRYFDVWGAGTTVTVSS
VL: DIVLTQSPATLSVTPGDSVSLSCRASQSISINLHWYQQKSHESPRLLIKFASQSISGIPSRFSGYGSGTDFTLSINSVETEDFGRYFCQQSNSWPLTFGAGTKLELKR
notes: Antibody 1 with heavy chain C95N
B11: Antibody 51 (antibody, human IgG1, kappa, V domains shown)
VH: EVQLVQSGAEVKKPGATVKISCKASGYTFSDYYLHWVRQAPGKGLEWMGWIDPENGDTEYAPKFQGRVTITADTSTDTGYLELSSLRSEDTAVYYCAANKELRYFDVWGQGTLVTVSS
VL: DIQMTQSPSSVSASVGDRVTITCRASQSISINLHWYQQKPGKAPKLLIYFASQSISGVPSRFSGSGSGTDFSLTINSLQPEDFATYYCQQSNSFPLTFGGGTKVEIKR
B12: Antibody 55 (antibody, human IgG1, kappa, V domains shown)
VH: B11 VH with A40R, G42E, R67K
VL: B11 VL
B13: Antibody 52 (antibody, human IgG1, kappa, V domains shown)
VH: B11 VH with A40R
VL: B11 VL
B14: Antibody 54 (antibody, human IgG1, kappa, V domains shown)
VH: B11 VH with R67K
VL: B11 VL

biological target: T1, human IL-23; test: SPR, single 81 nM analyte, scFv via FLAG; LOD about 1 × 10^-5 s^-1

| koff | Binder |
| --- | --- |
| < 1e-05 s⁻¹ | B1 |
| < 1e-05 s⁻¹ | B2 |
| < 1e-05 s⁻¹ | B3 |
| < 1e-05 s⁻¹ | B4 |
| < 1e-05 s⁻¹ | B5 |
| < 1e-05 s⁻¹ | B6 |
| < 1e-05 s⁻¹ | B7 |
| < 1e-05 s⁻¹ | B8 |
| < 1e-05 s⁻¹ | B9 |

biological target: T1, human IL-23; test: SPR, IgG on Protein A
Protocol: (§1) Using a SPR 3000, Protein A was immobilized onto FC1 and FC2 (or alternatively FC3 and FC4) of a CM5 research grade sensor chip using amine coupling, giving approximately […] RU. FC1 was used a blank throughout the experiments. The experiments were run in HBS-P buffer (SPR). At a flow rate of 20 μl/min, 20 μl of 5 μg/mL of antibody was passed over FC2. IL-12, IL-23 or IL-12p40 (Peprotech) were passed over the surface of FC1 and FC2 at concentrations ranging from 66 nM to 2 nM. Regeneration of the surface was performed using 10 mM Glycine, pH 1.0. The sensorgram data from FC2 was subtracted from FC1 and a buffer only control. The curves were fitted using a 1:1 Langmuir equation to generate the kd, ka and KD values. All curves were fitted with a χ² of less then 2.0 where possible.

| Kd | koff | kon | Binder |
| --- | --- | --- | --- |
| 72.2 pM | 0.000147 s⁻¹ | 2.03e+06 M⁻¹ s⁻¹ | B10 |

biological target: T2, human IL-12; test: SPR, IgG on Protein A
Protocol: as §1

| Kd | koff | kon | Binder |
| --- | --- | --- | --- |
| 91.8 pM | 0.000167 s⁻¹ | 1.82e+06 M⁻¹ s⁻¹ | B10 |

biological target: T1, human IL-23; test: SPR, single 81 nM analyte, scFv via FLAG

| Kd | kon | Binder |
| --- | --- | --- |
| ≤ 32 pM | 230000 M⁻¹ s⁻¹ | B1 |
| ≤ 27 pM | 220000 M⁻¹ s⁻¹ | B2 |
| ≤ 27 pM | 220000 M⁻¹ s⁻¹ | B3 |
| ≤ 13 pM | 220000 M⁻¹ s⁻¹ | B4 |
| ≤ 7.5 pM | 200000 M⁻¹ s⁻¹ | B5 |
| ≤ 16 pM | 220000 M⁻¹ s⁻¹ | B6 |
| ≤ 3.3 pM | 200000 M⁻¹ s⁻¹ | B7 |
| ≤ 41 pM | 230000 M⁻¹ s⁻¹ | B8 |
| ≤ 34 pM | 230000 M⁻¹ s⁻¹ | B9 |

biological target: T1, human IL-23; test: ELISA, coated IL-23
Outline: (§2)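 Cytokine at 1 μg/mL in carbonate buffer pH 9.6 was coated overnight at 4° C onto Maxisorp plates and blocked with 1% BSA in PBS for 1 hour at 25° C. Antibody titrations were bound for 1 hour at 25° C, then detected with goat anti-human IgG or anti-murine immunoglobulin HRP (1:2000, 1 hour). TMB was developed and stopped with 1M HCl. The binding result is absorbance at 450 nm (reference 620 nm).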

| binding result | Binder |
| --- | --- |
| binds | B11 |
| binds | B12 |
| binds | B13 |
| binds | B14 |

biological target: T2, human IL-12; test: ELISA, coated IL-12
Outline: as §2

| binding result | Binder |
| --- | --- |
| binds | B11 |
| binds | B12 |
| binds | B13 |
| binds | B14 |

Source: patent US20110262445A1 (CEPHALON AUSTRALIA, published 2011)
